Results reported in patent US20110237518A1 (ONCOTHERAPY SCIENCE, published 2011).

B1: DEPDC1 587-740, COOH-terminal HA-tagged partial construct (other)
chain: QSLLQPHLERVAIDALQLCCLLLPPPNRRKLQLLMRMISRMSQNVDMPKLHDAMGTRSLMIHTFSRCVLCCAEEVDLDELLAGRLVSFLMDHHQEILQVPSYLQTAVEKHLDYLKKGHIENPGDGLFAPLPTYSYCKQISAQEFDEQKVSTSQA
notes: The forward primer carries an added ACCATG, so an extra start Met may precede residue 587; not shown: C-terminal HA-tag from pCAGGScHA vector
B2: DEPDC1 300-669, COOH-terminal HA-tagged partial construct (other)
chain: VNILVVCGYITVSDRSSGIHKIQDDPQSSKFLHLNNLNSFKSTECLLLSLLHREKNKEESDSTERLQISNPGFQERCAKKMQLVNLRNRRVSANDIMGGSCHNLIGLSNMHDLSSNSKPRCCSLEGIVDVPGNSSKEASSVFHQSFPNIEGQNNKLFLESKPKQEFLLNLHSEENIQKPFSAGFKRTSTLTVQDQEELCNGKCKSKQLCRSQSLLLRSSTRRNSYINTPVAEIIMKPNVGQGSTSVQTAMESELGESSATINKRLCKSTIELSENSLLPASSMLTGTQSLLQPHLERVAIDALQLCCLLLPPPNRRKLQLLMRMISRMSQNVDMPKLHDAMGTRSLMIHTFSRCVLCCAEEVDLDELLAG
notes: The forward primer carries an added ACCATG, so an extra start Met may precede residue 300; not shown: C-terminal HA-tag from pCAGGScHA vector
B3: DEPDC1 177-597, COOH-terminal HA-tagged partial construct (other)
chain: DNRELSQEDVEEVWRYVILIYLQTILGVPSLEEVINPKQVIPQYIMYNMANTSKRGVVILQNKSDDLPHWVLSAMKCLANWPRSNDMNNPTYVGFERDVFRTIADYFLDLPEPLLTFEYYELFVNILVVCGYITVSDRSSGIHKIQDDPQSSKFLHLNNLNSFKSTECLLLSLLHREKNKEESDSTERLQISNPGFQERCAKKMQLVNLRNRRVSANDIMGGSCHNLIGLSNMHDLSSNSKPRCCSLEGIVDVPGNSSKEASSVFHQSFPNIEGQNNKLFLESKPKQEFLLNLHSEENIQKPFSAGFKRTSTLTVQDQEELCNGKCKSKQLCRSQSLLLRSSTRRNSYINTPVAEIIMKPNVGQGSTSVQTAMESELGESSATINKRLCKSTIELSENSLLPASSMLTGTQSLLQPHLERV
notes: not shown: C-terminal HA-tag from pCAGGScHA vector
B4: DEPDC1 1-147, COOH-terminal HA-tagged partial construct (other)
chain: MESQGVPPGPYRATKLWNEVTTSFRAGMPLRKHRQHFKKYGNCFTAGEAVDWLYDLLRNNSNFGPEVTRQQTIQLLRKFLKNHVIEDIKGRWGSENVDDNNQLFRFPATSPLKTLPRRYPELRKNNIENFSKDKDSIFKLRNLSRRT
notes: as for B3

How the values were obtained:
[1] = biological target: T1, FLAG-tagged ZNF224 (ZNF224-FLAG), pCAGGSc-ZNF224-FLAG (human, UniProt Q9NZL3 1-707); assay: co-IP with anti-HA rat antibody from co-transfected Cos7 cells
T1 construct: Whole open reading frame of ZNF224 in frame with a C-terminal FLAG-tag, expressed in UM-UC-3 or COS7 cells; also called exogenous ZNF224; not shown: C-terminal FLAG-tag from the pCAGGScFLAG vector
Experimental: (§1) To confirm the interaction between DEPDC1 and ZNF224 in bladder cancer cells and identify the ZNF224-binding region in DEPDC1, the immunoprecipitation experiment was carried out as follows. First, it was confirmed interaction between endogenous DEPDC1 and exogenous ZNF224 by immunoprecipitation experiments using anti-DEPDC1 polyclonal antibody for immunoprecipitation and anti-FLAGM2 antibody (Amersham) for immunoblotting. To further determine the ZNF224-binding region in DEPDC1, it was cloned six partial constructs of DEPDC1 (DEPDC1₁₋₁₄₇, DEPDC1₁₄₁₋₃₀₀, DEPDC1₁₇₇₋₅₉₇, DEPDC1₃₀₀₋₆₆₉, DEPDC1₅₈₇₋₇₄₀ and DEPDC1₆₅₄₋₈₁₁) into appropriate sites of COOH-terminal HA-tagged pCAGGS vector. The nucleotide sequence of each clones were determined with an ABI Prism 3700 DNA sequencer (Applied Biosystems, Foster City, Calif.), using each primer. Cell extracts from Cos7 cell line, transfected with each of plasmids expressing one of these six partial segments of DEPDC1, were precleared by incubation at 4 degrees C. for 1 hour with 100 micro 1 of protein G-agarose beads in final volumes of 2 mL of immunoprecipitation buffer (0.5% NP40, 50 mmol/L Tris-HCl, 150 mmol/L NaCl) in the presence of proteinase inhibitor. After centrifugation at 1,000 rpm for 5 minutes at 4 degrees C., the supernatants were incubated at 4 degrees C. with anti-HA rat for 1 hours. […]

[2] = biological target: T1, FLAG-tagged ZNF224 (ZNF224-FLAG), …; assay: co-IP with anti-HA antibody from co-transfected Cos7 cells
Experimental: as §1

T1 sequence (Q9NZL3 whole entry M118V/H562R): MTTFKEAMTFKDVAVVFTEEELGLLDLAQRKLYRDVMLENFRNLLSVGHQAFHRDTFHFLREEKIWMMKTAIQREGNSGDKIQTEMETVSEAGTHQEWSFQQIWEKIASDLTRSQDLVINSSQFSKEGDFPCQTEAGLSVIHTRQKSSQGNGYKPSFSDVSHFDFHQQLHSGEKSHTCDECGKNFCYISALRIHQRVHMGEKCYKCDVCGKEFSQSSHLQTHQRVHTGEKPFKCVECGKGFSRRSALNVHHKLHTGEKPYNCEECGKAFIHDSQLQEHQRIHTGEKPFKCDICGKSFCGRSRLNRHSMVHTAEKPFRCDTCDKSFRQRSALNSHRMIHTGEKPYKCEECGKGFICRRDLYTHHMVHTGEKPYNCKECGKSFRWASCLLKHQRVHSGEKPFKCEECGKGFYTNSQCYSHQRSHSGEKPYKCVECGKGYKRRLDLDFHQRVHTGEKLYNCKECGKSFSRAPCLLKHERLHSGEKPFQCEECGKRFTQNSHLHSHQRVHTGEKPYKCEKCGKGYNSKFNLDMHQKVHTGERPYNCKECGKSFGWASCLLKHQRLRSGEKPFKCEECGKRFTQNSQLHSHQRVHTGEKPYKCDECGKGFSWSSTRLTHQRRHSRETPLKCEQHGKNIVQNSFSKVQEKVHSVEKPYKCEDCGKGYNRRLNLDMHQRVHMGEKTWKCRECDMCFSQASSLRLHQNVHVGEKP

Binder | binding result [1] | binding result [2]
B1 | binds | –
B2 | binds | –
B3 | – | no binding
B4 | – | no binding
